Results published in paper PMC12957798 (2025).

How the values were obtained:
[1] = biological target: T1, EGFR (Homo sapiens, UniProt P00533); assay: BLI
[2] = biological target: T1, EGFR; assay: SPR

Binder | Kd [1] | Kd [2]
SFMPLSIPIMCKMLSKC (biotinylated EGFR) | 229 nM | –
SFMPLSIPIMCKMLSKC | – | 148 nM
